Changes are numbered by the printed parent chain.
What was measured:
[1] = target: T1, Pfu Y33F FEN1 (Pyrococcus furiosus, UniProt O93634 SEQ:1-340, Y33F); experiment: cleavage_in_vitro; rate vs Pfu FEN1; details: label: 5'-biotin target; 5'-TET probe; hairpin target-INVADER with overlapping probe flap
T1 sequence: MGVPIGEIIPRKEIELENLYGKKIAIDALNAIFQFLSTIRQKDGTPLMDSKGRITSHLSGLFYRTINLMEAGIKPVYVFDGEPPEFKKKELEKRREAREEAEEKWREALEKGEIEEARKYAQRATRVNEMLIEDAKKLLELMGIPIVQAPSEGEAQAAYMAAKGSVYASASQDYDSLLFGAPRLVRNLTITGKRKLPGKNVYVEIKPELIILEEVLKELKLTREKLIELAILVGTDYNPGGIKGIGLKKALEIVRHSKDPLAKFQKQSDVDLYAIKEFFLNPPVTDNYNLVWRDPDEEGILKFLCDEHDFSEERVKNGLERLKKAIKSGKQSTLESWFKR
Procedure: (§1) For the evaluation of chimeric enzymes, standard tests were performed to measure the performance and specificity of the enzymes. […] 10 μl reactions are run at 59 C for between 5 to 60 minutes depending on the enzyme. Reactions are stopped by the addition of 10 μl of 95% formamide, 0.02% methyl violet. 1 μl of the mixture is run on a denaturing 20% acrylamide gel and electrophoresed for 15 minutes or until good separation is achieved between cleaved and uncleaved probe. The gels are scanned using an FMBIO fluorescent gel scanner and the bands are quantified with FMBIOAnalysis software. Cleavage rates are determined from the percent probe cleaved. Cleavage rate for the INVADER substrate is defined as the number of probe molecules cleaved per target molecule per minute. In Table 5, below, the cleavage rates for the mutant enzymes are compared to the cleavage rates for unmodified Pfu FEN1 enzyme on the INVADER assay and X-structure substrates.
(§2) The X-structure substrate is used to determine the amount of background cleavage an enzyme will carry out in an INVADER reaction. It mimics the structure created by uncut primary probe and secondary FRET cassette in the INVADER squared reaction. […] 10 μl reactions are run at 59 C for between 3 to 30 minutes depending on the enzyme. Reactions are stopped by the addition of 10 μl of 95% formamide, 0.02% methyl violet. 1 μl of the mixture is run on a denaturing 20% acrylamide gel and electophoresed for 15 minutes or until good separation is achieved between cleaved and uncleaved probe. The gels are scanned using an FMBIO fluorescent gel scanner and the bands are quantified with FMBIOAnalysis software. Cleavage rates are determined from the percent probe cleaved.

[2] = target: T2, Pfu Y33A FEN1 (Pyrococcus furiosus, UniProt O93634 SEQ:1-340, Y33A); experiment: cleavage_in_vitro; rate vs Pfu FEN1; details: label: 5'-biotin target; 5'-TET probe; hairpin target-INVADER with overlapping probe flap
T2 sequence: T1 sequence with F33A
Procedure: as §1, §2

B1: INVADER substrate 594-12-1/203-91-1 (structured_DNA)
DNA 1: TTTTTCACGGCAGTTGGTGCGCCTCGGAACGAGGCGCACA
DNA 2: TTTTCAACTGCCGTGA
Question: For B1, which cleavage rate [1] is on record?
Answer: 0.96

Question: What about the cleavage rate [2] of the same binder?
Answer: 0.05

— patent US20050048527, “Endonuclease-substrate complexes” (Third Wave Technologies, Inc., published 2005)
